{"source": "paper PMC6143783", "origin": "cited, not measured here", "key": {"[1]": {"molecular_target": "GABAA receptor α1 TM3-TM4 loop (Homo sapiens) (UniProt P14867)", "sequence (P14867 334-420)": "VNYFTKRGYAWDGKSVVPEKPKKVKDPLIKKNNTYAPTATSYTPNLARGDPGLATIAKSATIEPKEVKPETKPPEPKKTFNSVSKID", "experiment": "ITC"}, "[2]": {"molecular_target": "GABAA receptor α3 TM3-TM4 loop (Homo sapiens) (UniProt P34903)", "sequence (P34903 359-457)": "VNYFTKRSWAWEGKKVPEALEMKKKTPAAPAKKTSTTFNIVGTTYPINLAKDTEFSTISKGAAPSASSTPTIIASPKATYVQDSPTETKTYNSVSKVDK", "experiment": "ITC"}}, "data": [{"substance": "gephyrin (from UniProt Q03555)", "values": [{"measurement": "Kd", "setting": "[1]", "result": 17, "unit": "µM"}, {"measurement": "Kd", "setting": "[2]", "result": 5.3, "unit": "µM"}]}]}
